# Biological target: microtubules (MTs) polymerised from purified tubulin (Cytoskeleton, # T240) (UniProt P02550 1-451)
# Assay: cell-based or functional assay
row,Binder,"rate of MT-polymerization (turbidity at 340 nm, no taxol; 2 µM tubulin, 0.2 µM Diaph2 protein), fold against the buffer control [fold]"
1,"FH2-domain of Diaph2 (aa 624-1049), GST-fusion protein (domain or fragment, human, UniProt O60879 624-1049, looked up) YGMKQKKMYKPEVSMKRINWSKIEPTELSENCFWLRVKEDKFENPDLFAKLALNFATQIKVQKNAEALEEKKTGPTKKKVKELRILDPKTAQNLSIFLGSYRMPYEDIRNVILEVNEDMLSEALIQNLVKHLPEQKILNELAELKNEYDDLCEPEQFGVVMSSVKMLQPRLSSILFKLTFEEHINNIKPSIIAVTLACEELKKSESFNRLLELVLLVGNYMNSGSRNAQSLGFKINFLCKIRDTKSADQKTTLLHFIADICEEKYRDILKFPEELEHVESASKVSAQILKSNLASMEQQIVHLERDIKKFPQAENQHDKFVEKMTSFTKTAREQYEKLSTMHNNMMKLYENLGEYFIFDSKTVSIEEFFGDLNNFRTLFLEAVRENNKRREMEEKTRRAKLAKEKAEQEKLERQKKKKQLIDINKE",4
2,"full-length (FL) Diaph2 (Drosophila homologue of Diaphanous2), GST-fusion protein (natural protein, human, UniProt O60879 1-1101, looked up) MEQPGAAASGAGGGSEEPGGGRSNKRSAGNRAANEEETKNKPKLNIQIKTLADDVRDRITSFRKSTVKKEKPLIQHPIDSQVAMSEFPAAQPLYDERSLNLSEKEVLDLFEKMMEDMNLNEEKKAPLRNKDFTTKREMVVQYISATAKSGGLKNSKHECTLSSQEYVHELRSGISDEKLLNCLESLRVSLTSNPVSWVNNFGHEGLGLLLDELEKLLDKKQQENIDKKNQYKLIQCLKAFMNNKFGLQRILGDERSLLLLARAIDPKQPNMMTEIVKILSAICIVGEENILDKLLGAITTAAERNNRERFSPIVEGLENQEALQLQVACMQFINALVTSPYELDFRIHLRNEFLRSGLKTMLPDLKEKENDELDIQLKVFDENKEDDLTELSHRLNDIRAEMDDMNEVYHLLYNMLKDTAAENYFLSILQHFLLIRNDYYIRPQYYKIIEECVSQIVLHCSGMDPDFKYRQRLDIDLTHLIDSCVNKAKVEESEQKAAEFSKKFDEEFTARQEAQAELQKRDEKIKELEAEIQQLRTQAQVLSSSSGIPGPPAAPPLPGVGPPPPPPAPPLPGGAPLPPPPPPLPGMMGIPPPPPPPLLFGGPPPPPPLGGVPPPPGISLNLPYGMKQKKMYKPEVSMKRINWSKIEPTELSENCFWLRVKEDKFENPDLFAKLALNFATQIKVQKNAEALEEKKTGPTKKKVKELRILDPKTAQNLSIFLGSYRMPYEDIRNVILEVNEDMLSEALIQNLVKHLPEQKILNELAELKNEYDDLCEPEQFGVVMSSVKMLQPRLSSILFKLTFEEHINNIKPSIIAVTLACEELKKSESFNRLLELVLLVGNYMNSGSRNAQSLGFKINFLCKIRDTKSADQKTTLLHFIADICEEKYRDILKFPEELEHVESASKVSAQILKSNLASMEQQIVHLERDIKKFPQAENQHDKFVEKMTSFTKTAREQYEKLSTMHNNMMKLYENLGEYFIFDSKTVSIEEFFGDLNNFRTLFLEAVRENNKRREMEEKTRRAKLAKEKAEQEKLERQKKKKQLIDINKEGDETGVMDNLLEALQSGAAFRDRRKRIPRNPDNRRVPLERSRSRHNGAISSK",40
